According to patent publication US8304236B2, “Modified biotin-binding protein” (Japan Tobacco Inc., priority 2008, dated 2012):
Where a chain is given by its changes, count along the chain named. In names and notes the source's numbering stands.

B1: TM2: wild type tamavidin 2, biotin-binding protein from Pleurotus cornucopiae, amino acid sequence SEQ ID NO: 2 (protein, listed as Pleurotus cornucopiae)
chain: MSDVQSSLTGTWYNELNSKMELTANKDGTLTGKYLSKVGDVYVPYPLSGRYNLQPPAGQGVALGWAVSWENSKIHSATTWSGQFFSESSPVILTQWLLSSSTARGDVWESTLVGNDSFTKTAPTEQQIAHAQLHCRAPRLK
B2: TM2 D40NR104EK141E: TM2 mutant having mutation of D40N and R104EK141E; SEQ ID NO: 24 (protein)
chain: B1 chain with D40N, R104E, K141E
modifications: Synthetic TM2 D40NR104EK141E

Key:
[1] = Biotin-binding test (Biacore 3000, biotin-LC-BSA immobilized)
Experimental: High-purity BSA (Sigma, 2 mg) and NHS-LC-biotin (Pierce, 1 mg) were dissolved in 50 mM sodium borate (pH 8.0, 1 mL) and were incubated at 4° C. for 2 hours. The solution was put into a dialysis tube (MWCO 6-8,000) and was dialyzed with 50 mM sodium carbonate (pH 6.7) at 4° C. overnight. The resulting biotin-LC-BSA conjugate (MW: 67 kDa, 30 μM) was used as a ligand for a Biacore (registered trademark) biosensor.
Biotin-LC-BSA and BSA serving as a negative control were immobilized on CM5 sensor chips by amine coupling method. The amount for immobilization was adjusted to about 200 RU. The chips to which BSA was immobilized were disposed in flow cells 1 and 3, while the chips to which biotin-LC-BSA was immobilized were disposed in flow cells 2 and 4.
Accordingly, seven step measurement (3.125, 6.25, […], 25, 50, 100, and 200 nM) was conducted from the lowest concentration, without recycling steps. The data of BSA as reference was deducted from the data of BSA-LC-biotin. The measurement was performed at 25° C. The resulting sensorgrams were subjected to reaction kinetics analysis using analysis software BIAevaluation ver. 4.1 with a 1:1 binding model to calculate the binding rate constant (ka) and the dissociation rate constant (kd). The dissociation constant (KD) was determined from kd/ka. In the case where no recycling step is employed, the Rmax (maximum amount of binding analyte) decreases at each measurement. Accordingly, in the analysis, the Rmax was calculated by conducting local fitting for each concentration, and only the data of analyte concentrations that were approximated to the 1:1 binding model was employed.
TM2 and HALU TM2 used as analytes were prepared by purification with 2-iminobiotin agarose in accordance with a common method and dialysis with 20MM KPi (pH 7) overnight. The analytes were each adjusted to about 50 μg/mL in 10 mM acetate buffer (pH 5, Biacore).
The immobilization of the ligand and measurement and analysis of specific interaction with the analytes were conducted as in paragraph 2-7-2).

[2] = Heat stability of protein structure (soluble protein after heating, SDS-PAGE); format: physicochemical; settings: for Thermal stability (temp. at which 50% of protein was lost): heated for 20 minutes
Experimental: 3-8) Heat Stability of HALU TM2 Protein Structure Each of 0.2 μg/μL TM2 mutant solutions (10 μL (2 μg)) was heated at room temperature, 50, 60, 70, 80, 90, or 99° C. for 20 minutes. Then, the solution was centrifuged at 15000 rpm for 10 minutes, and the soluble protein in the supernatant was suspended in the same volume of 2×SDS sample buffer (250 mM Tris-HCl, pH 6.8, 20% 2-mercaptoethanol, 20% SDS, 20% glycerol). The suspension was heated at 95° C. for 10 minutes, followed by SDS-PAGE. The protein bands were detected by CBB staining A standard curve was prepared using a quantitative marker (LMW ELECTROPHORESIS CALIBRATION KIT; Pharmacia Biotech) with Las-3000 (FUJIFILM) to quantify the protein bands.

[3] = system: human serum protein; assay: Non-specific adsorption of low-pI TM2 to human serum protein-immobilized magnetic beads; format: binding; settings: wild type TM2 = 100
Experimental: In this embodiment, non-specific binding to human serum was investigated as non-specific adsorption of low-pI TM2 to serum protein-immobilized magnetic beads. Specifically, in order to investigate the non-specific binding of low-pI TM2, the amount of low-pI TM2 adsorbed to magnetic beads to which human serum protein was covalently bonded was measured. TM2 K26A, TM2 K73Q, TM2 R104E, TM2 K141E, and TM2 R104EK141E, which were highly expressed in Escherichia coli, were used as the low-pI TM2 to be investigated.
Human serum protein and magnetic beads were bound to each other as follows. Magnetic beads having surfaces coated with carboxyl groups (Dynabeads M-270 Carboxylic Acid, Dynal, 210 μL) were washed with 0.01 N sodium hydroxide (210 μL) for 10 minutes and then with ultrapure water (210 μL) for 10 minutes three times. To the washed magnetic beads, 1-ethyl-3-(3-dimethylaminopropyl)carbodiimide hydrochloride (EDC, PIERCE) dissolved in cooled ultrapure water was added into a final concentration of 0.2 M, and the mixture was shaken at room temperature for 30 minutes. Then, the magnetic beads were washed with cooled ultrapure water (210 μL) and then with 50 mM MES buffer (pH 5.0, 210 μL).
To the magnetic beads, 1 mg/mL human serum protein (CHEMICON, 210 μL) dialyzed with 50 mM MES buffer (pH 5.0) was added. The mixture was shaken at room temperature for 30 minutes to covalently bind the human serum protein to the magnetic beads. The magnetic beads were collected with a magnet to remove the supernatant. The unreacted active groups on the beads were eliminated with 50 mM tris buffer (pH 7.0, 210 μL), and then the magnetic beads were blocked with a PBS buffer (420 μL) containing 0.5% BSA and 0.1% Tween 20. The magnetic beads were suspended in a PBS buffer (210 μL) to obtain human serum protein-immobilized magnetic beads.
The magnetic beads (7 μL) and 0.56 μg/mL of each low-pI TM2 (100 μL) were mixed for reaction at room temperature for 1 hour. The magnetic beads were collected with a magnetic, and the supernatant was removed. After washing with 20 mM potassium phosphate buffer (500 μL) containing 500 mM sodium chloride, the magnetic beads were mixed with 20 μL of 2×SDS sample buffer (250 mM Tris-HCl, pH 6.8, 20% 2-mercaptoethanol, 20% SDS, 20% glycerol), followed by heating at 95° C. for 20 minutes to dissociate the low-pI TM2 from the magnetic beads.
This sample was subjected to SDS-PAGE and then western blotting analysis to determine the amount of the low-pI TM2. Anti-tamavidin 2 rabbit antibody and alkaline phosphatase-labeled anti-rabbit IgG goat antibody were used as the primary antibody and the secondary antibody, respectively. The bands were detected with Alkaline Phosphatase Substrate Kit II <VECTOR Black> (VECTRO) and were quantified with Las-3000 (FUJIFILM).

Row | Molecule | dissociation from biotin-LC-BSA ([1]; dissociation monitored for 60 minutes) | Thermal stability (temp. at which 50% of protein was lost) [2] | Thermal stability (temp. at which 50% of protein was lost) ([2]; listed as TM2WT) [°C] | Non-specific binding of serum protein (%) [3] [%] | ka ([1]; Biotin-BSA (22.4 Å)) | kd ([1]; Biotin-BSA (22.4 Å), values in parentheses) | protein remained after heating ([2]; heated at 99° C. for 20 minutes) [%]
1 | B1 | not dissociated | 87.5 °C | 86 | 100 | – | – | –
2 | B2 | – | 99 °C or | – | – | 1.5 × 10^6 | (1.4 × 10^−8) | 78
